Here are results for 1 molecule from publication PMC9865026 (Pathogens, 2022).

The target of this assay is A/New Caledonia/20/1999 (NC H1N1) recombinant hemagglutinin (HA) (Influenza A virus A/New …, UniProt Q6WG00, strain). Description: ELISA. Particulars: both partners purified. Background: An ELISA detects its analyte on a solid surface through an enzyme-linked reagent.

B1: FI6 human IgG1 (antibody, V domains shown)
VH: QVQLVESGGGVVQPGRSLRLSCAASGFTFSTYAMHWVRQAPGKGLEWVAVISYDANYKYYADSVKGRFTISRDNSKNTLYLQMNSLRAEDTAVYYCAKDSQLRSLLYFEWLSQGYFDYWGQGTLVTVSS
VL: not shown
notes: also called native human IgG1; source: HEK-293, transfected (pTT5), purified from cell culture supernatant (MabSelect); copies: 2 + 2
In the case of B1, the binding result is “binds”.
